Test: protease stability score; higher = more stable; yeast display proteolysis, trypsin and chymotrypsin;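 further: relative to predicted unfolded state with 0 unfolded-like and 1 meaning tenfold more protease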

Sequence | protease stability score
DERQEEARKMFEDVYKAVWTGDEEELLRLMDPNVRIDIDGKILHGREALSEEWKRVDHVHHEHHEDMKVIGNKLHVRGHIEVDIDGRNLRYTIDNYLVVVNGRIKEVKEREV | 0.664
DERQHEARKVFLEWIRREVTGDFERVRHLADPNMRMDINGVEHHGRDRMSELIFRQLEEMRIEIHIRHYHVIGEKVHANIEMRVRQGDWDETRTIEIIFVVIDGRLHDYTVHIL | 0.643
DERQHHAENFHELFFRWVETGDWENQRELADPNMRVDLVVNGVELHDHGMDSFTKRLHELRLHHLDIRSVHYVNGRIDSDIRVDGVIDGRRIDTHMRLHLRVINGKMREIRIQID | 1.33
DERQKELQEFAERLMRVLNTGDWEHTEQLLDPHVRVHFNGRDFHGWEEIVRFWTELRNQFDHFELRVDTVRIQGDKVENDGNAIFRIDGKELRHRITIHVFLINGKIKRVNVEIR | 1.68
DERREIMEEWARDVIEWLETGDFEAIERNLDPNVRHDFNGKEFHGREQVIKSFHDILKRIKNIRIETRHIEVVDGVTHWDGDVNVNGVRTHVDINIEVINGVFHDFYIKFK | 1.19
DERREQTRHWINMFTHAMRTGDEHTFKELLDPHVRVKDEHEEDHGRDKAVELFSRVDVFHDIKLRDIDVQGNYVTIEVELLGEIDGKRTTHDLHIITYKINGRWILKSVSIR | 1.06
DERRKLEEDILELMLRVFETGDFDTFIKFADPNTRSDVNGRQYHGREWLAEMWKITLEELGADHFELTSYDVFNGRVHLRIRVHVGDKQRSMTIEIQVINGKVQSIRIDIE | 1.4
DERSEEVRRLIKNLVDFFHTGDWRLIQDLADPNVRTDVNGVEHHGREEVTKMLEELVRRFRNVRLHIRDHHIQGEWVIVILEFHVGDKSFELHMFALKINGRWTLTSIEVR | 2.37
DERSHVLEEVLKKTSRANETGNEEIIEENLDPNTRFDWNGVIIHGREQWLELVKHMRISIHHFDTRDIREFNGRADVRGDMDSVIEVDGRRLRLDTHVIYHATKVDGRWVITEIRIH | 0.41
DERSRNLEHYAKDLVEDWLTGDFRRYSKLADPNALTIFNGVELHGRELVIRMMNELRHRIDHLEIRIEDSHIQGNKVKIDSHRIMNVNGVEYRTKTEEWFDIVDGRVKSVEIRVH | 0.426
DERTEEVKRITEEFREAERTGDWERLLELIDPDVRIEIIINGRRETYHGREDAKRVLEEWYKQFKNITLKLREMRIQGDKTDLEVEVNVNGRRHDIRVHLHIVNGRIKEIRIEVI | 1.63
DERTEFLERMSEHLTHVWHTGNEELWNRLADPRARFIEFVDGKKNHHHGMEVASNRIKKWRKDLGIDHVRLKEERVQGNKVELHLQVDINGVEQTVEIYNSIVDGRFESLEVNIHTR | 0.074
DERTEHFREYREKVLESIETGDPRVIKEMLDPNAKVEIVIGEKNFDLHGREEVMRWYEEWVEKYKGMRIHINHVEVQGEKIIVDSELEVNGKSHKTDLIITAFNGVIKETRVEIN | 1.06
DERTEHNRQLAEEITRALLTGDWHEIEKQADPHVKFRQGEFSYVGREDLVRFWEEFIKKIKNITLRIREIRVIGDKVHIHNDLKIGDKETHVHIILVLIDGRLHHLEIRIE | 1.45
DERTEHSEENVKLFIEALRTGDFKTLLRLVDPHVRVIVIINGKEINNHGWEEFLRWMREEFERYPNLRVKVRHLDIQGDFVRVEGHLEVGDKSHRIHLHLLIINGVVELELYIFR | 1.92
DERTELTRNFFEEMVDTMITGNEHLEHRLADPNVRIYVGEKRIHGMERYIHQHHQWRFKDFKLKDIDTQGDKATIDGHLEGEVNGKDTRTDVEVHTLKFNGRWLIHTLRIR | 1.1
DERTEVSEEFHRILIKVWRTGDETLSHQLADPHAKAEIGDKTIHGRDLWKEVFRRESERYDHYDSRLKDVKVQGDYINLDVHLILHVDGVPVRTDVIEIVLKFNGRWRLHSFHVK | 0.684
DERTEYFIREAREMLRDWVTGDWKRLHELMDPNARQDVNGVKNVGRDELSEFFEKFRERFDVYELRITEERHQGNKFIVKGDFHSNQGEFTFHHELEVHIVVVNGQFKRIEMRIR | 1.55
DERTHHLEQLYRRMYEHWETGDEKFHRELLDPHARVDINGQDVHGMHWIEEEMRMQREHIRIEHVIIKSIEIVDGKIHMNGIILGDINGRRVNVEVRFHVIIINGKARLVEVKIL | 0.025
DERTKEDEKWAKLFLEWHKTGNEEAFSHFADPHTRNTINGVELIGRESLMEFSKRWIEELRFKQLHIRDFKVVNGRVHIDSELHGIINGQEISTTVKIHIDIINGQTKSVEVRIL | 1.17

— the NTF2 design screens of Basanta et al. (2020)
